The values that follow come from patent publication US20110300071A1, “TARGETING NPR-C IN ANGIOGENESIS AND ATHEROSCLEROSIS WITH A C-TYPE ATRIAL NATRIURETIC FACTOR (CANF)-COMB NANOCOMPLEX” (Washington University, priority 2010, published 2011).

Positions of bridges follow the written chain, without caps; N, C: chain ends. Residues, ends and D or L forms follow the SMILES beside them. No end group written: not given here. *: point of attachment. DOTA = O=C(O)CN1CCN(CC(=O)O)CCN(CC(=O)*)CCN(CC(=O)O)CC1

One may read the tissue uptake as the share of the injected amount in each gram of the tissue. In general, amount remaining refers to what is left of the initial amount, in per cent.

One data set is described as follows: in vivo. The note with it: rabbit, iv, total radioactivity. The method, then:
In these experiments, the blood clearance studies were performed in normal rabbits (n=4) to evaluate the pharmacokinetics of tracer in vivo. About 20 MBq of ^64Cu-DOTA-C-ANF was injected intravenously into the left ear of rabbit, and blood sample (0.2 mL) was drawn from the contralacteral ear over the period of 1 h (1 min, 3 min, 5 min, 10 min, 20 min, 40 min and 60 min). The activity of the blood samples were counted in gamma counter and presented in percent injected dose per gram (ID %/g).

A further data set in a line: in vitro. Conditions: rabbit, serum. In kind it is in vitro ADME. The method, then:
On the contrary, only free ^64Cu was detected in the control samples (^64Cu-acetate incubated in rabbit serum) by radio-HPLC.

A further data set concerns atherosclerotic lesions. As to the kind of experiment: MRI of Gadofluorine uptake in atherosclerotic-like lesions. In kind it is in vivo, rabbit. Conditions: 3T MRI 1 hour after administration. The method, then:
The presence of atherosclerotic lesions in the rabbits was confirmed by 3T MRI 1 hour after administration of a non-receptor specific plaque-targeting contrast agent (Gadofluorine M, 0.5 μmol/kg body weight, Schering AG, Germany) (Sirol, M., et al., Circulation 109:2890-2896, 2004; Zheng, J., et al., Invest. Radiol. 43:49-55, 2008; Meding, J., et al., Mol. Imaging 2:120-129, 2007). […] For scanning, the rabbit was placed supine into a plastic bed. Three micropipette tubes filled with 0.5 mL Gadofluorine M served as fiducial markers, and were taped into position on the bed. At the beginning of the PET study, these tubes were drained of the Gadofluorine by syringe, and refilled with 0.5 mL of ^64Cu to serve as the PET fiducials. These helped to “co-localize” the plaque regions between the two image modalities.

Data set [1] deals with natriuretic peptide clearance receptor (NPR-C), rabbit (rabbit) (UniProt G1SZF5). As to the kind of experiment: cell-based or functional assay.
Data set [2] deals with T1, natriuretic peptide clearance receptor (NPR-C), rabbit (rabbit, UniProt G1SZF5 25-536).
T1 sequence: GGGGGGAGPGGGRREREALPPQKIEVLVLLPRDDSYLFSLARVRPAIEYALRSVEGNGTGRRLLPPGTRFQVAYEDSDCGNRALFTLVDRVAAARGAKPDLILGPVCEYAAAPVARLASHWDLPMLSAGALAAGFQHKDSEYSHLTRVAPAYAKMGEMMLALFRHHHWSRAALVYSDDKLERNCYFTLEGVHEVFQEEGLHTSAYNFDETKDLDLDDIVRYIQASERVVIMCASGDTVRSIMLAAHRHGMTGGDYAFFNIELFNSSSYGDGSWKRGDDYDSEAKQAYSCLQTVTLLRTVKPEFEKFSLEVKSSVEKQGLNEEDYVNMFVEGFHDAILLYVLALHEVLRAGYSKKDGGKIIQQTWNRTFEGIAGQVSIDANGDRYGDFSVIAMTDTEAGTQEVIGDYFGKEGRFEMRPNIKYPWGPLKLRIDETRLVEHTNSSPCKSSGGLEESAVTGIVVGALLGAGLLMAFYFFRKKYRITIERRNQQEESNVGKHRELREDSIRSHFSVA
As to the kind of experiment: cell-based or functional assay.

Data set [3] addresses T2, natriuretic peptide clearance receptor (NPR-C), mouse (mouse, UniProt P70180 41-536).
T2 sequence (looked up): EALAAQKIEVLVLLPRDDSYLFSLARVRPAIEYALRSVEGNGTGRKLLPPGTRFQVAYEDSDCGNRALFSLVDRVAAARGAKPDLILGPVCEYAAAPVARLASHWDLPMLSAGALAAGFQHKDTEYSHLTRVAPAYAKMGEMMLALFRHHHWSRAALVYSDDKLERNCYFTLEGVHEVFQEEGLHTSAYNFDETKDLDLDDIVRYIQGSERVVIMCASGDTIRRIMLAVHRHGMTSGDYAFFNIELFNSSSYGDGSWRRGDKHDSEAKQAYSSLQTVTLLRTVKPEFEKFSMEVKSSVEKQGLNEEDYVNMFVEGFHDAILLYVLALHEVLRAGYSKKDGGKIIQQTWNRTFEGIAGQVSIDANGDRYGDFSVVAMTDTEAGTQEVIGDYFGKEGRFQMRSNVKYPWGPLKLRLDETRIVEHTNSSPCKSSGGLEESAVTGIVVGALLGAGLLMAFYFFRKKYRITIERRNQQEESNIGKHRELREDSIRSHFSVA
As to the kind of experiment: cell-based or functional assay.

Data set [4] deals with T1, natriuretic peptide clearance receptor …. As to the kind of experiment: cell-based or functional assay. This is another data set of the same source.
The target of data set [5] is natriuretic peptide clearance receptor (NPR-C), mouse (mouse) (UniProt P70180). As to the kind of experiment: cell-based or functional assay.

Turning to `CC[C@H](C)[C@@H]1NC(=O)[C@H](CCCNC(=N)N)NC(=O)[C@H](CC(=O)O)NC(=O)[C@H]([C@@H](C)CC)NC(=O)[C@H](CCCNC(=N)N)NC(=O)CNC(=O)CNC(=O)[C@H](Cc2ccccc2)NC(=O)[C@@H](NC(=O)[C@H](CO)NC(=O)[C@H](CO)NC(=O)[C@H](CCCNC(=N)N)NC(=O)CN2CCN(CC(=O)O)CCN(CC(=O)O)CCN(CC(=O)O)CC2)CSSC[C@@H](C(N)=O)NC(=O)[C@H](C)NC(=O)CNC1=O` [^64Cu-DOTA-CANF, metal not drawn] ({DOTA}-RSSCFGGRIDRIGAC-NH2; disulfide 4-15), the tissue uptake at 0.05 h in the data set “in vivo” was 0.1 %ID/g. In the data set “in vitro”, this molecule registered an amount remaining at 1 h of 97.7 ± 3.9%.

With `CC(C(=O)NCC(=O)NCCCC[C@H](NC(=O)CO[C@H]1O[C@H](CO)[C@@H](O)[C@H](O)[C@@H]1O)C(=O)N1CCN(S(=O)(=O)C(F)(F)C(F)(F)C(F)(F)C(F)(F)C(F)(F)C(F)(F)C(F)(F)C(F)(F)F)CC1)N1CCN(CC(=O)O)CCN(CC(=O)O)CCN(CC(=O)O)CC1` (stereo partly shown) [Gadofluorine M], the “uptake in control arteries (MRI)” value in the data set on atherosclerotic lesions is on record as “no Gadofluorine M uptake”. Also, the “MRI signal in injured vessels” value in the data set with atherosclerotic lesions (all rabbits, all time points) is reported as “increased signal”.

On to RSSCFGGRIDRIGAC-NH2 (disulfide 4-15; not fully specified; also: 64Cu label) [^64Cu-CANF-Comb (25% CANF-Comb)], for which, in data set [1], the Injury SUV, 1 h amounted to 5.31 SUV; the Injury SUV, 4 h came out at 4.76 SUV; the Injury SUV, 24 h was found to be 3.74 SUV; the Injury/control SUV ratios, 1 h amounted to 4.07. Moreover, in data set [1], the Injury/control SUV ratios, 4 h was 4.07; the Injury/control SUV ratios, 24 h amounted to 4.24; the Injury/muscle SUV ratios, 1 h came out at 38.2; the Injury/muscle SUV ratios, 4 h was determined as 37.7. The Injury/muscle SUV ratios, 24 h in data set [1] amounted to 40.8.

For RSSCFGGRIDRIGAC-NH2 (disulfide 4-15; also: DOTA conjugated, site not given here, 64Cu chelated) [^64Cu labeled DOTA-C-type atrial natriuretic factor (CANF) conjugate], in data set [2], the “SUV ratio injured/control arteries, blocking with unlabeled C-ANF” value is 1.07 ratio; the “SUV ratio injured/control arteries, pre-blocking” value was 1.42 ratio; the “target-to-background ratio injured artery/muscle, blocking” value is 2.13 ratio; the “target-to-background ratio injured artery/muscle, pre-blocking” value stood at 3.05 ratio. In addition, in data set [3], the “ischemic/nonischemic uptake ratio, after blocking with unlabeled CANF” value is 1.24 ratio and the “ischemic/nonischemic uptake ratio, before blocking” value was found to be 2.34 ratio. In data set [4], the “Injury/control SUV ratios, 1 h” value stood at 1.87 ratio and the “Injury/muscle SUV ratios, 1 h” value stood at 3.39 ratio.

B1: ^64Cu-DOTA-CANF-Comb nanoprobe (peptide)
peptide: RSSCFGGRIDRIGAC-NH2
modifications: disulfide 4-15; also: acylated with 4-pentynoic anhydride, clicked to azide-PEG methacrylate of PMMA-core/PEG-shell comb copolymer nanoparticle, DOTA in particle core chelates 64Cu
Consider B1, for which, in data set [5], the ischemic/nonischemic uptake ratio, 1 h p.i. came out at 4.35; the ischemic/nonischemic uptake ratio, 24 h p.i. was 5.35; the tracer uptake in ischemic limb, 1 h p.i. was 6.3 % ID/g; the tracer uptake in ischemic limb, 24 h worked out at 8.5 % ID/g. Besides, in data set [5], the uptake in lesion site with receptor blocking, 1 h stood at 3.34; the uptake in lesion site with receptor blocking, 4 h amounted to 3.34; the uptake in lesion site with receptor blocking, 24 h was 3.31; the uptake ratio with receptor blocking, 1 h p.i. was 1.93. In data set [5], the uptake ratio with receptor blocking, 4 h p.i. was 1.87 and the uptake ratio with receptor blocking, 24 h p.i. came out at 1.82.
